Reference: article PMC9016352, “Disease‐linked TDP‐43 hyperphosphorylation suppresses TDP‐43 condensation and aggregation”

Key:
TDP‐43 = TDP‐43 (UniProt Q13148); assay: condensate sedimentation assay, TDP-43 Western blot; settings: reference: unmodified TDP-43 (no CK1δ, no ATP); sites S403,S404,S409,S410
TDP-43-MBP-His6 Wt = TDP-43-MBP-His6 Wt (human (hTDP-43)?, UniProt Q13148 1-414); assay: EMSA; 20 mM NaPO4 pH 8, 150 mM NaCl, 1 mM DTT, 5 mM MgCl2, 0.5 mg/ml BSA, 0.1 mg/ml yeast tRNA, 5% glycerol, 1 U/ul RNase inhibitor, 20 min RT; 16 nM Cy5-RNA, 0-1.6 uM protein; 6% native PAGE 0.5x TBE; settings: protein: recombinant; tags: C-terminal TEV site-MBP-His6; label: 5' Cy5

other: S/(S+C) ratio (higher = less condensate) (TDP‐43)	Molecule	binding result (TDP-43-MBP-His6 Wt)
weaker; reference ~0.25	TDP‐43 (from UniProt Q13148) TDP-43 + CK1δ + ATP	
	UGUGUGUGUGUGUGUGUGUGUGUG (ssRNA) [(UG)12 RNA]	binds
